From patent US20230265151A1, “GIP/GLP1 CO-AGONIST COMPOUNDS” (priority 2020, published 2023) come the findings set out here.

Substitutions are numbered along the chain they refer to.

Some targets named below: hGLP-1R (Homo sapiens, UniProt P43220); human GLP-1 receptor (human, UniProt P43220 24-463); human glucagon receptor (human, UniProt P47871 26-477).
Test in all cases: cell-based or functional assay
The target of test [1] is T1, human GIP receptor (human) (UniProt P48546).
T1 sequence (looked up): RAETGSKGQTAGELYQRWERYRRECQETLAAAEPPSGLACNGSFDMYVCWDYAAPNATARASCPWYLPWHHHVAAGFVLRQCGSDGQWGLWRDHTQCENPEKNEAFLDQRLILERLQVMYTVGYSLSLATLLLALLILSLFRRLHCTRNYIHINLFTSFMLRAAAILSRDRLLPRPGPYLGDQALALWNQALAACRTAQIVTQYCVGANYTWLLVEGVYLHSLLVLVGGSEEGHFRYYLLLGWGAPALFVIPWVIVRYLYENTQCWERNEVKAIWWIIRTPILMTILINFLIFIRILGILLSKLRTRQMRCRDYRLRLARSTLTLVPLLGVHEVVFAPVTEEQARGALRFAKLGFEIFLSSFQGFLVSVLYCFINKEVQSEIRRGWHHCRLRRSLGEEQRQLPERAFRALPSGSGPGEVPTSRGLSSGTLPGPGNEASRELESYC

In test [2] the target is human glucagon receptor (human) (UniProt P47871).
The target in the next test is T2, human GIP receptor (human, UniProt P48546 22-466).
T2 sequence (looked up): T1 sequence (looked up)

Chain of human glucagon receptor (P47871 26-477): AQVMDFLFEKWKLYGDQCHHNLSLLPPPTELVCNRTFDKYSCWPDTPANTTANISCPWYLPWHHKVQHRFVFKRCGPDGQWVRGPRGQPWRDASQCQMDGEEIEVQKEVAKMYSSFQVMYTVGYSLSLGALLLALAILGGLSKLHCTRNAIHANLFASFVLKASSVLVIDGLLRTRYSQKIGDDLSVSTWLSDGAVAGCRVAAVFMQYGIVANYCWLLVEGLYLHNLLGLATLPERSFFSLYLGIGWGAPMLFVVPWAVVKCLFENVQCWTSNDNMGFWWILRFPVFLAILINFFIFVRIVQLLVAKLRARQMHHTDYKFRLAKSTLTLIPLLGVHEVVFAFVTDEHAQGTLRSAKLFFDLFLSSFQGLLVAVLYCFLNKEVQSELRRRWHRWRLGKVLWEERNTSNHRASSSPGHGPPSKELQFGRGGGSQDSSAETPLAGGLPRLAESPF

B1: Example 420 (peptide)
peptide: YXEGTXTSDXXIXLDXKAQXXFIXXLIEGGPSSGAPPPSK
modifications: Y-Aib-EGT-αMeF(2F)-TSD-4Pal-Aib-I-αMeL-LD-Orn-K((2-[2-(2-Amino-ethoxy)-ethoxy]-acetyl)2-(γ-Glu)-CO-(CH2)10-CH3)AQ-Aib-4Pal-FI-(D-Glu)-αMeY-LIEGGPSSGAPPPSK((2-[2-(2-Amino-ethoxy)-ethoxyl-acetyl)2-(γ-Glu)-CO-(CH2)10-CH3)-NH2
B1: the results for the cAMP EC50 (with hGLP-1R; in test [1]; in test [2]) were 0.123 nM, 0.00964 nM and over 9950 nM, respectively. Moreover, the cAMP Emax with hGLP-1R came out at 99.7%; in test [1], 101%. Further, the “cAMP EC50 (1.0% HSA)” value with human GIP receptor was 0.351 nM; with human GLP-1 receptor, 10 nM; in the test with human glucagon receptor, over 9950 nM. Also, in the test with human GLP-1 receptor, the “cAMP Emax (1.0% HSA)” value amounted to 109%.

B2: Example 424 (peptide)
peptide: B1 peptide with X21E
modifications: Y-Aib-EGT-αMeF(2F)-TSD-4Pal-Aib-I-αMeL-LD-Orn-K((2-[2-(2-Amino-ethoxy)-ethoxy]-acetyl)3-(γ-Glu)-CO-(CH2)10-CH3)AQ-Aib-EFI-(D-Glu)-αMeY-LIEGGPSSGAPPPSK((2-[2-(2-Amino-ethoxy)-ethoxy]-acetyl)3-(γ-Glu)-CO-(CH2)10-CH3)-NH2
Regarding B2, the cAMP EC50 in the test with hGLP-1R is 0.0427 nM; in test [1] it was 0.00502 nM; in test [2] it was over 9950 nM. Also, the cAMP Emax with hGLP-1R was found to be 102%; in test [1], 101%. In addition, the figures for the “cAMP EC50 (1.0% HSA)” value with human GIP receptor, in the test with human GLP-1 receptor and with human glucagon receptor were 0.159 nM, 3.07 nM and over 9950 nM, respectively.

B3: Example 428 (peptide)
peptide: B1 peptide with X21E
modifications: Y-Aib-EGT-αMeF(2F)-TSD-4Pal-Aib-I-αMeL-LD-Orn-K((2-[2-(2-Amino-ethoxy)-ethoxy]-acetyl)-(γ-Glu)-CO-(CH2)10-CH3)AQ-Aib-EFI-(D-Glu)-αMeY-LIEGGPSSGAPPPSK((2-[2-(2-Amino-ethoxy)-ethoxy]-acetyl)-(γ-Glu)-CO-(CH2)10-CH3)-NH2
As to B3, the cAMP EC50 in the test with hGLP-1R is 0.102 nM; in test [1], 0.00797 nM; in test [2], over 9950 nM. Moreover, the cAMP Emax with hGLP-1R came to 106%; in test [1], 95.5%. Further, the “cAMP EC50 (1.0% HSA)” value with human GIP receptor is 0.748 nM; with human GLP-1 receptor, 10.2 nM; with human glucagon receptor, over 9950 nM.

B4: Example 421 (peptide)
peptide: YXEGTXTSDKXIXLDXKAQXEFIXXLIEGGPSSGAPPPS
modifications: Y-Aib-EGT-αMeF(2F)-TSDK((2-[2-(2-Amino-ethoxy)-ethoxy]-acetyl)3-(γ-Glu)-CO-(CH2)10-CH3)-Aib-I-αMeL-LD-Orn-K((2-[2-(2-Amino-ethoxy)-ethoxy]-acetyl)3-(γ-Glu)-CO-(CH2)10-CH3)AQ-Aib-EFI-(D-Glu)-αMeY-LIEGGPSSGAPPPS-NH2
Turning to B4, the cAMP EC50 in the test with hGLP-1R was 0.057 nM; in test [1], 0.00618 nM; in test [2], over 9950 nM. In addition, the cAMP Emax was found to be 101% with hGLP-1R and 100% in test [1]. Besides, the entries for the “cAMP EC50 (1.0% HSA)” value with human GIP receptor, in the test with human GLP-1 receptor and in the test with human glucagon receptor were 0.164 nM, 2.01 nM and over 9950 nM, respectively. The “cAMP Emax (1.0% HSA)” value with human GIP receptor amounted to 98%.

B5: Example 426 (peptide)
peptide: B4 peptide with K10X, E21K
modifications: Y-Aib-EGT-αMeF(2F)-TSD-4Pal-Aib-I-αMeL-LD-Orn-K((2-[2-(2-Amino-ethoxy)-ethoxy]-acetyl)-(γ-Glu)-CO-(CH2)10-CH3)AQ-Aib-K((2-[2-(2-Amino-ethoxy)-ethoxy]-acetyl)-(γ-Glu)-CO-(CH2)10-CH3)FI-(D-Glu)-αMeY-LIEGGPSSGAPPPS-NH2
B5: the cAMP EC50 in the test with hGLP-1R was 0.206 nM; in test [1], 0.0191 nM; in test [2], over 9950 nM. The cAMP Emax was determined as 97.2% in the test with hGLP-1R and 93.3% in test [1]. The “cAMP EC50 (1.0% HSA)” value with human GIP receptor was 3.88 nM; with human GLP-1 receptor, 29.7 nM; with human glucagon receptor, over 9950 nM. The “cAMP Emax (1.0% HSA)” value in the test with human GIP receptor was found to be 91.2%.

B6: Example 429 (peptide)
peptide: B4 peptide with F22X
modifications: Y-Aib-EGT-αMeF(2F)-TSDK((2-[2-(2-Amino-ethoxy)-ethoxy]-acetyl)2-(γ-Glu)-CO-(CH2)10-CH3)-Aib-I-αMeL-LD-Orn-K((2-[2-(2-Amino-ethoxy)-ethoxy]-acetyl)2-(γ-Glu)-CO-(CH2)10-CH3)AQ-Aib-E-αMeF-I-(D-Glu)-αMeY-LIEGGPSSGAPPPS-NH2
With B6, the cAMP EC50 in the test with hGLP-1R was 0.116 nM; in test [1] it was 0.00799 nM; in test [2] it was over 9950 nM. In addition, the cAMP Emax in the test with hGLP-1R was determined as 116%; in test [1], 108%. The “cAMP EC50 (1.0% HSA)” value with human GIP receptor was 1.03 nM; with human GLP-1 receptor it was 17.3 nM; with human glucagon receptor it was over 9950 nM. For the same molecule, the “cAMP Emax (1.0% HSA)” value in the test with human GIP receptor worked out at 93.3%.

B7: Example 422 (peptide)
peptide: B4 peptide with K10X, E21K
modifications: Y-Aib-EGT-αMeF(2F)-TSD-4Pal-Aib-I-αMeL-LD-Orn-K((2-[2-(2-Amino-ethoxy)-ethoxy]-acetyl)3-(γ-Glu)-CO-(CH2)10-CH3)AQ-Aib-K((2-[2-(2-Amino-ethoxy)-ethoxy]-acetyl)3-(γ-Glu)-CO-(CH2)10-CH3)FI-(D-Glu)-αMeY-LIEGGPSSGAPPPS-NH2
With B7, the cAMP EC50 in the test with hGLP-1R was 0.0729 nM; in test [1], 0.00655 nM; in test [2], over 9950 nM. Moreover, the cAMP Emax with hGLP-1R amounted to 106%; in test [1], 104%. The “cAMP EC50 (1.0% HSA)” value in the test with human GIP receptor was 0.199 nM; in the test with human GLP-1 receptor it was 3.84 nM; with human glucagon receptor, over 9950 nM. In addition, in the test with human GIP receptor, the “cAMP Emax (1.0% HSA)” value worked out at 97.5%.
